1 molecule from US20240400686A1 can be followed below.

This test deals with Human CD3εδ (human) (UniProt P07766). The experiment in a line: SPR, sensorgrams at 10-300 nM; set-up not given. Background: In SPR one partner is held on a chip, and binding of the other changes the refractive index at the surface.

B1: humanized 26H8 Fab (Fab, V domains shown)
VH: QVQLQESGPGLVKPSETLSLTCTASGYTFTNYYIHWVRQSPGKGLEWIGWIYCGDGSTKFNEQFKDRTTLSADHSKTQASLKLSSVTAADTAIYFCARDWAGSYFFDFWGQGTMVTVSS
VL: DIQMTQSPSSLSASVGDRVTITCKSSQSLLNSRTRKNYLAWYQQKPGKAPKLLIYWASTRESGVPSRFSGSGSGTDFTFTISSLQPEDIATYYCKQSYILRTFGGGTKVEIKR
As usually defined, the Kd is the concentration at which binding is half-saturated. Higher therefore signals weaker binding. As usually defined, the koff is the rate constant with which the complex falls apart. Low values mean slow dissociation, high ones fast dissociation. In general, kon refers to the second-order rate constant of association. In turn, B1 returned a Kd of 49 nM, a koff of 0.015 s⁻¹ and a kon of 300000 M⁻¹ s⁻¹.
